Results on four substances are retold here after US20260022153A1 (AMIDEBIO, LLC, priority 2017, published 2026).

One data set concerns the target IGF1 receptor (IGF1R) (Homo sapiens, UniProt P08069). The data set can be described thus: Binding affinity of insulin analogs to the IGF1 receptor (IGF1R). As to conditions: in the absence of glucose.
For the next data set, the target named is insulin receptor (Homo sapiens, UniProt P06213). As to conditions: cited from earlier work.
The conditions of data set [1]: after one year in acidic formulations; cited from earlier work.

For orientation: Kd means the equilibrium constant for the complex coming apart. A low value points to a tighter complex. In the data set with IGF1 receptor (IGF1R), “SEQ ID NO: 5: single chain insulin analog […] (FVDQHLCGSHLVEALYLVCGERGFFYTPKTYDGKGIVEQCCTSICSLYQLENYCG)” showed a dissociation constant Kd of 30.4 nM.
The same measure, in the same setting: next, “SEQ ID NO: 7: single chain insulin analog […] (FVGQHLCGSHLVEALYLVCGERGFFYTPKTYDGKGIVEQCCTSICSLYQLENYCG)”: 26.8 nM.
With “Wakayama mutation ValA3Leu: insulin with a valine to leucine substitution at position A3 of Insulin Chain A, a naturally occurring mutation”, the “fold lower affinity for the insulin receptor compared to wildtype insulin” value with insulin receptor is 500 fold.
Turning to insulin, the AsnA21 deamidation in data set [1] was 20-30%. Moreover, the Kd with IGF1 receptor (IGF1R) turned out to be 5.66 nM.
